The test system of one experiment is C81 cells. The experiment is described as follows: RT-PCR, Western blot and ELISA in C81 EBP1 transfectants. In kind it is cell-based, human. The protocol:
FIG. 5A-D. Expression of genes associated with androgen independence is decreased in C81 EBP1 transfectants. A. Lysates of logarithmically growing clones of C81 EBP1 transfectants (E1,2) or vector controls (V 1,2) were resolved by SDS-PAGE and immunoblotted for AR, BCL-2, BAD, FLAG, EBP1 and ACTIN as indicated. Representative of 3 experiments. B. Secreted PSA as measured by ELISA. EBP1 and vector control cells were plated at 1×10^6 cells/100 mm dish in complete media. Forty-eight hours later, conditioned media were collected and frozen. PSA activity was assessed by ELISA. Levels of PSA were adjusted to total cell number. Data is representative of 2 experiments. C. Validation of mRNA levels in EBP1 transfectants. Quantitative RT PCR was performed for the KALLIKREIN-2, AGR2 and TSPY genes in EBP1 and vector transfectants. The relative levels of all test mRNAs were normalized to β-ACTIN. Results are representative of 3 experiments using different sets of cells. D. Expression of AGR2 protein in vector and EBP1 C81 transfectants. Lysates of vector control (V) or EBP1 (E) transfected cells grown in complete media were resolved by SDS-PAGE and analyzed by Western blotting with antibody to AGR2.
Microarray Analysis and Bioinformatics. RNA was prepared using the Trizol Reagent as previously described (8). Microarray processing and data analysis was performed at Genome Explorations (Nashville, Tenn.). U133A oligonucleotide arrays (Affymetrix) containing ˜33,000 full length annotated genes together with additional probe sets designed to represent EST sequences were used for the analysis. Only genes with a minimum expression level of 500 were included in this analysis. […] Oncomine analyses were performed by using Oncomine 3.0 (www.oncomine.org). Real Time Quantitative Reverse-Transcription PCR. Both cell culture samples and a commercial panel of cDNAs from normal prostate and prostate tumors (TissueScan, Origene, Rockville, Md.) were examined. The method of Nakanishi et al. (15) was used as previously described. Real-time quantitative RT-PCR was performed on the LightCycler® (Roche) platform. The following forward and reverse primers were selected using Primer Express software and synthesized by the Core Laboratory of University of Maryland School of Medicine: Ebp1, sense: 5′-GCA CGC CAA TAG AAG G-3′ (SEQ ID NO: 16) and antisense: 5′-GTA AAC GGC ATG GCA TC-3′ (SEQ ID NO: 17) kallikrein-2 sense: 5′-CAT CCA GTC TCG GAT TG-3′ (SEQ ID NO: 18) and antisense: 5′-CTC ATA TTG TAG AGC GGG T-3′ (SEQ ID NO: 19), TSPY, sense: 5′-CAGGGCTTCTCATTCCACTC-3′ (SEQ ID NO: 20) and antisense: 5′-CCATCATATTCAACTCAACAA CTGG-3′ (16; SEQ ID NO: 21), AGR2, sense: 5′-ATTGGCAGAGCAGTTTCTCC-3′ (SEQ ID NO: 22) and antisense, 5′-GAGCTGTATCTGCAGGTTCGT (17; SEQ ID NO: 23) 13-Actin, sense: 5′-GCTATCCAGGCTGTGCTATC-3′ (SEQ ID NO: 24) and antisense 5′-TGT CAC GCA CGA TTT CC-3′ (SEQ ID NO: 25). A SYBR®Green PCR Kit was used as per the manufacturer's instructions (Applied Biosystems, Foster City, Calif.) and the analyses were performed in duplicate or triplicate.
Measurement of PSA levels. Serum PSA levels were determined using a PSA ELISA kit from DSL, Inc (Webster, Tex.) as previously described (9).
Western Blot Analysis. Western blot analysis was performed as previously described (19). The Ebp1 antibody was from Upstate (Lake Placid, N.Y.), the polyclonal antibody to actin from Sigma, the AKT and phospho AKT antibodies from Cell Signaling (Beverly, Mass.) and the AGR2 antibody was previously described (20) Cell Growth Assays Cell growth measurement in complete media was performed as described using a hemocytometer (21). For soft agar growth assays, increasing concentrations of cells (as indicated) were plated in 35 mm Petri dishes in 0.3% agar in complete media and colonies were counted after 10 days of incubation (21). […]

Another experiment has as its system LNCaP cells. In words: Growth response of LNCaP vector controls and EBP1 transfectants to DHT and bicalutamide. The conditions noted are these: LNCaP EBP1 transfectants (vector controls approximately 70%). The experiment is classed as cell-based, human. The protocol: Cell Growth Assays: To measure growth in complete media, cells (2×10^4) were seeded in triplicate in individual wells of 12-well tissue culture plates in RPMI-1640 with 10% FBS and cultured for the indicated number of days. Cells were trypsinized, stained with Trypan Blue (0.4%), and counted in a hemacytometer. For soft agar growth assays, increasing concentrations of cells (as indicated) were plated in 35 mm Petri dishes in complete media and 0.3% Difco Bacto Agar over an 0.5% agar layer. Colonies were counted after 10 days of incubation. For studies assessing the effect of dihydrotestosterone (DHT) on cell growth, cells (2×10^4) were plated in 12-well plates in complete media. After a 24-hour attachment period, the medium was replaced with steroid-free medium [phenol red-free RPMI 1640 and 5% charcoal-stripped FBS (Sigma)] for 48 hours. The final concentration of testosterone in the steroid-reduced media was less than 5 pM. After 48 hours of steroid depletion, cells were re-fed with fresh steroid-reduced medium with or without the indicated concentrations of DHT and/or bicalutamide (10 μM), and total cell numbers were assessed 7 days later.

Setting [1] is: C81 EBP1 transfectants vs vector controls, real time RT-PCR.
Setting [2] is: C81 clones transfected with FLAG-tagged EBP1, Western blot.

B1: EBP1: ErbB3 binding protein (SEQ ID NO: 2), AR corepressor, here ectopically expressed in cancer cells by stable transfection of an expression plasmid (protein, listed as Homo sapiens)
chain: MSGEDEQQEQTIAEDLVVTKYKMGGDIANRVLRSLVEASSSGVSVLSLCEKGDAMIMEETGKIFKKEKEMKKGIAFPTSISVNNCVCHFSPLKSDQDYILKEGDLVKIDLGVHVDGFIANVAHTFVVDVAQGTQVTGRKADVIKAAHLCAEAALRLVKPGNQNTQVTEAWNKVAHSFNCTPIEGMLSHQLKQHVIDGEKTIIQNPTDQQKKDHEKAEFEVHEVYAVDVLVSSGEGKAKDAGQRTTIYKRDPSKQYGLKMKTSRAFFSEVERRFDAMPFTLRAFEDEKKARMGVVECAKHELLQPFNVLYEKEGEFVAQFKFTVLLMPNGPMRITSGPFEPDLYKSEMEVQDAELKALLQSSASRKTQKKKKKKASKTAENATSGETLEENEAGD
modifications: FLAG tag
Regarding B1, in the experiment with C81 cells (C81 EBP1 transfectants in complete media, Western blot), the AGR2 protein result was “decreased”. The “decrease of secreted PSA protein levels” value with C81 cells (C81 EBP1 transfectants vs vector controls, ELISA) is 60%. Moreover, in the experiment on C81 cells (setting [1]), the “AGR2 mRNA downregulation” value is reported as “over 90%” and the “Kallikrein-2 mRNA downregulation” value is “over 80%”. In addition, the “TSPY mRNA downregulation” value with C81 cells (C81 EBP1 transfectants, real time RT-PCR) is recorded as “over 90%”. For the same molecule, in the experiment with C81 cells (setting [2]), the AR protein level result is reported as “markedly reduced”, the BAD protein level result was “remained the same as the vector controls” and the Bcl2 protein level entry is given as “markedly reduced”. In the experiment with LNCaP cells, the “growth inhibition by the withdrawal of androgens” value is listed as 60%.

These data come from patent US7838495B2, “Compositions and methods of use of EPB1, and ErbB3 binding protein” (University of Maryland, Baltimore, priority 2007, dated 2010).
